From the RNAGym collection of RNA variant scans (doi:10.7554/elife.80360)

B1: HDV Ribozyme (parent)
chain: GGCCGGCAUGGUCCCAGCCUCCUCGCUGGCGCCGGCUGGGCAACAUUCCGAGGGGACCGUCCCCUCGGUAAUGGCGAAUGGGACCCA

Variants of: B1
Assay: self-cleavage, relative activity (ratio to wild type); higher = more cleavage; co-transcriptional

First: GGCCGGCCUGGUCCUAGCCUCCUCGCUGGCGCCGGCUGGGCAACAUUCCGAGGGGACCGUCCCCUCGGUAAUGGCGAAUGGGACCCA [A8C C15U]
Second: GGCCGGCCUGGUCCCAGCCUCCUCGCUGGCGCCGGCUGGGCAACAUUCCGAUGGGACCGUCCCCUCGGUAAUGGCGAAUGGGACCCA [A8C G52U]
The self-cleavage of the first is higher: 0.604 for the first, 0.566 for the second.

Going from GGCCGGCCUGGUCCCAGCCUCCUCGCUGGCGCCGGCUGGGCAACAUUCCGAAGGGACCGUCCCCUCGGUAAUGGCGAAUGGGACCCA [A8C G52A] to GGCCGGCCUGGUCCCAGCCUCCUCGCUGGCGCCGGCUGGGCAACAUUCGGAGGGGACCGUCCCCUCGGUAAUGGCGAAUGGGACCCA [A8C C49G], the self-cleavage falls from 0.831 to 0.475.

Going from GGCCGGCCUGGUCCCAGCCUCCUCGCUGGCGCCGGCUGGGCAACAUUCUGAGGGGACCGUCCCCUCGGUAAUGGCGAAUGGGACCCA [A8C C49U] to GGCCGGCCUGGUCCCACCCUCCUCGCUGGCGCCGGCUGGGCAACAUUCCGAGGGGACCGUCCCCUCGGUAAUGGCGAAUGGGACCCA [A8C G17C], the self-cleavage falls from 0.567 to 0.

Going from GGCCGGCCUGGUCCCAGCCUCCUCGCUGGCGCCGGCUGGGCAAGAUUCCGAGGGGACCGUCCCCUCGGUAAUGGCGAAUGGGACCCA [A8C C44G] to GGCCGGCCUGGUCCCAGCCUCCUCGCUGGCGCCGGCUGGGCAAAAUUCCGAGGGGACCGUCCCCUCGGUAAUGGCGAAUGGGACCCA [A8C C44A], the self-cleavage falls from 0.401 to 0.222.

First: GGCCGGCCUGGUCCCAGCCUCCUCGCUGUCGCCGGCUGGGCAACAUUCCGAGGGGACCGUCCCCUCGGUAAUGGCGAAUGGGACCCA [A8C G29U]
Second: GGCCGGCCUGGUCCCAGCCUCCUCGCUGACGCCGGCUGGGCAACAUUCCGAGGGGACCGUCCCCUCGGUAAUGGCGAAUGGGACCCA [A8C G29A]
The self-cleavage of the first is lower: 0.151 for the first, 0.18 for the second.

First: GGCCGGCCUGGUCCCAGCCUCCUCGCUGCCGCCGGCUGGGCAACAUUCCGAGGGGACCGUCCCCUCGGUAAUGGCGAAUGGGACCCA [A8C G29C]
Second: GGCCGGCCUGGUCCCAGCCUCCUCGCUGGCGACGGCUGGGCAACAUUCCGAGGGGACCGUCCCCUCGGUAAUGGCGAAUGGGACCCA [A8C C32A]
The self-cleavage of the first is lower: 0 for the first, 0.119 for the second.

First: GGCCGGCCUGGUCCCAGCCUCCUCGCUGGCGCCCGCUGGGCAACAUUCCGAGGGGACCGUCCCCUCGGUAAUGGCGAAUGGGACCCA [A8C G34C]
Second: GGCCGGCCUGGUCCCAGCCUCCUCGCUGGCGCCUGCUGGGCAACAUUCCGAGGGGACCGUCCCCUCGGUAAUGGCGAAUGGGACCCA [A8C G34U]
The self-cleavage of the first is higher: 0.178 for the first, 0.104 for the second.

Going from GGCCGGCCUGGUCCCAGCCUCCUCGCUGGCGCCGGCUGGGCAACAUUCCGAGGGGACCGUCCCCUCGGUAAUGGCGAAUGGGACGCA [A8C C85G] to GGCCGGCCUGGUCCCAGCCUCCUCGCUGGCGCCGGCUGGGCAACAUUCCGAGGGGACCGUCCCCUCGGUAAUGGCGAAUGGGACACA [A8C C85A], the self-cleavage rises from 0.798 to 0.831.

Going from GGCCGGCCUGGUCCCAGCCUCCUCGCUGGCGCCGGCUGGGCAACAUUCCGAGGGGAACGUCCCCUCGGUAAUGGCGAAUGGGACCCA [A8C C57A] to GGCCGGCCUGGUCCCAGCCUCCUCGCUGGGGCCGGCUGGGCAACAUUCCGAGGGGACCGUCCCCUCGGUAAUGGCGAAUGGGACCCA [A8C C30G], the self-cleavage falls from 0.89 to 0.

Compared with GGCCGGCCUGGUCCCAGCCUCCUCGCUGGCGCCGGCUGGGCAACAUUCCGAGGGGACCGUCCCAUCGGUAAUGGCGAAUGGGACCCA [A8C C64A], GGCCGGCCUGGUCCCAGCCUCCUCGCUGGCGCCGGCUGGGCAACAUUCCGAGGGGACCGUCCCUUCGGUAAUGGCGAAUGGGACCCA [A8C C64U] is higher in self-cleavage: 0.639 for the first, 0.923 for the second.

Compared with GGCCGGCCUGGUCCCAGCCUCCUCGCUGGCGCCGGCUGGGCAACAUUCCGAGGGGACCGUCCCGUCGGUAAUGGCGAAUGGGACCCA [A8C C64G], GGCCGGCCUGGUCCCAGCCUCCUCGCUGGCGCCGGCUGGGCAACAUUCCGAGGGGACAGUCCCCUCGGUAAUGGCGAAUGGGACCCA [A8C C58A] is higher in self-cleavage: 0.415 for the first, 0.692 for the second.

Compared with GGCCGGCCUGGUCCCAGCCUCCUCGCUGGCGCCGGCUGGGCAACAUUCCGAGGGGACGGUCCCCUCGGUAAUGGCGAAUGGGACCCA [A8C C58G], GGCCGGCCUGGUCCCAGCCUCCUCGCUGGCGCCGGCUAGGCAACAUUCCGAGGGGACCGUCCCCUCGGUAAUGGCGAAUGGGACCCA [A8C G38A] is lower in self-cleavage: 0.68 for the first, 0.0369 for the second.

First: GGCCGGCCUGGUCCCAGCCUCCUCGCUGGCGCCGGCUCGGCAACAUUCCGAGGGGACCGUCCCCUCGGUAAUGGCGAAUGGGACCCA [A8C G38C]
Second: GGCCGGCCUGGUCCCAGUCUCCUCGCUGGCGCCGGCUGGGCAACAUUCCGAGGGGACCGUCCCCUCGGUAAUGGCGAAUGGGACCCA [A8C C18U]
The self-cleavage of the first is lower: 0.0978 for the first, 0.369 for the second.

Going from GGCCGGCCUGGUCCCAGGCUCCUCGCUGGCGCCGGCUGGGCAACAUUCCGAGGGGACCGUCCCCUCGGUAAUGGCGAAUGGGACCCA [A8C C18G] to GGCCGGCCUGGUCCCAGCCUCCUCGCUGGCGCCGGCUGGGCAACAUUACGAGGGGACCGUCCCCUCGGUAAUGGCGAAUGGGACCCA [A8C C48A], the self-cleavage rises from 0.0875 to 1.35.

Going from GGCCGGCCUGGUCCCAGCCUCCUCGCUGGCGCCGGCUGGGCAACAUUCCGAGGGGACCGUCCCCUCGGUAAUGGCGAAUGGGAACCA [A8C C84A] to GGCCGGCCUGGUCCCAGCCUCCUCGCUGGCGCCGGCUGGGCAACAUUCCGAGGGGACCGUCCCCUCGGUAAUGGCGAAUGGGAUCCA [A8C C84U], the self-cleavage falls from 0.751 to 0.462.

Going from GGCCGGCCUGGUCCCAGCCUCCUCGCUGGCGCCGGCUGGGCAACAUUCCGAGGGGACCGUCCCCUCGGUAAUGGGGAAUGGGACCCA [A8C C75G] to GGCCGGCCUGGUCCCAGCCUCCUCGCUGGCGCCGGCUGGGCAACAUUCCGAGGGGACCGUCCCCUCGGUAAUGGAGAAUGGGACCCA [A8C C75A], the self-cleavage falls from 0.277 to 0.128.
